Test results taken from article PMC7205207, “Modeling and mitigation of high-concentration antibody viscosity through structure-based computer-aided protein design” (PLoS ONE, 2020).
Residue numbers refer to the chain shown, from its start. Numbers in names are those of the source.

B1: R2-006 (antibody, V domains shown)
VH: EVQLLQSGGGLVKPGGSLRLSCAASGFTFSSYAMSWVRQAPGKGLEWVSYISDDGSLKYYADSVKGRFTISRDNSKNTLYLQMNSLRAEDTAVYYCARHPYWYGGQLDLWGQGTLVTVSS
VL: SYVLTQPPSVSVAPGKTARITCSGDSLGSYFVHWYQQKPGQSPVLVIYDDKKRPSGIPERFSGSNSGNTATLTISGTQAMDEADYYCSAFTHNSDVFGGGTKLTVL
notes: as the VH of m20 (R2-001_HC); as the VL of m20 (R2-001_LC) with S52K (Kabat); only the variable regions are written; source: HEK293, transient, purified from conditioned medium (protein A, TMAE, HIC)
B2: AB-001 (antibody, V domains shown)
VH: B1 VH with Q6E, K13Q, R98K
VL: B1 VL with V3E, A13S, K16Q, R19S, K51S, K52N
notes: VH of AB-001; VL of AB-001; only the variable regions are written; also called parental AB-001; parental clone; source: HEK293, transient, purified from conditioned medium (protein A, TMAE, HIC)
B3: R2-012 (antibody, V domains shown)
VH: B1 VH with D53K
VL: B1 VL with K51S
notes: as the VH of m20 (R2-001_HC) with D52aK; as the VL of m20 (R2-001_LC); only the variable regions are written; source: HEK293, transient, purified from conditioned medium (protein A, TMAE, HIC)
B4: R2-008 (antibody, V domains shown)
VH: B1 VH
VL: B1 VL with K51S, S66K
notes: as the VH of m20 (R2-001_HC); as the VL of m20 (R2-001_LC) with S67K (Kabat); only the variable regions are written; source: HEK293, transient, purified from conditioned medium (protein A, TMAE, HIC)
B5: R1-010 (antibody, V domains shown)
VH: B1 VH with Q6E, K13Q, R98K
VL: B1 VL with V3E, A13S, K16Q, R19S, K51S
notes: VH of AB-001 (AB-001_HC); only the variable regions are written; source: HEK293, transient, purified from conditioned medium (protein A, TMAE, HIC)
B6: R1-006 (antibody, V domains shown)
VH: B1 VH with Q6E, K13Q, Q106R
VL: B1 VL with V3E, A13S, K16Q, R19S, K51S, K52N
notes: VL of AB-001 (AB-001_LC); only the variable regions are written; source: HEK293, transient, purified from conditioned medium (protein A, TMAE, HIC)
B7: R2-018 (antibody, V domains shown)
VH: B1 VH
VL: B1 VL with D25N, K51S
notes: as the VH of m20 (R2-001_HC); as the VL of m20 (R2-001_LC) with D26N (Kabat); only the variable regions are written; source: HEK293, transient, purified from conditioned medium (protein A, TMAE, HIC)
B8: R1-017 (antibody, V domains shown)
VH: B1 VH with Q6E
VL: B1 VL with V3E, A13S, K16Q, T17R, R19S, K51S, K52N
notes: only the variable regions are written; source: HEK293, transient, purified from conditioned medium (protein A, TMAE, HIC)
B9: R1-012 (antibody, V domains shown)
VH: B1 VH
VL: B1 VL with A13S, K16Q, R19S, K51S, K52N
notes: Kabat position; only the variable regions are written; source: HEK293, transient, purified from conditioned medium (protein A, TMAE, HIC)
B10: R1-016 (antibody, V domains shown)
VH: B1 VH
VL: B1 VL with V3E, A13S, K16Q, R19S, K51S
notes: as for B8
B11: R2-014 (antibody, V domains shown)
VH: B1 VH with D54Q
VL: B1 VL with K51S
notes: as the VH of m20 (R2-001_HC) with D53Q; as the VL of m20 (R2-001_LC); only the variable regions are written; source: HEK293, transient, purified from conditioned medium (protein A, TMAE, HIC)
B12: R2-016 (antibody, V domains shown)
VH: B1 VH with D108N
VL: B1 VL with K51S
notes: as the VH of m20 (R2-001_HC) with D101N; as the VL of m20 (R2-001_LC); only the variable regions are written; source: HEK293, transient, purified from conditioned medium (protein A, TMAE, HIC)
B13: R2-009 (antibody, V domains shown)
VH: B1 VH
VL: B1 VL with K51S, G67K
notes: as the VH of m20 (R2-001_HC); as the VL of m20 (R2-001_LC) with G68K (Kabat); only the variable regions are written; source: HEK293, transient, purified from conditioned medium (protein A, TMAE, HIC)
B14: R1-013 (antibody, V domains shown)
VH: B1 VH with K13Q
VL: B1 VL with V3E, A13S, K16Q, T17R, R19S, K51S, K52N
notes: as for B8
B15: R1-007 (antibody, V domains shown)
VH: B1 VH
VL: B1 VL with V3E, A13S, K16Q, R19S, K51S, K52N
notes: as for B6
B16: R2-004 (antibody, V domains shown)
VH: B1 VH
VL: B1 VL with Y48H, K51S
notes: as the VH of m20 (R2-001_HC); as the VL of m20 (R2-001_LC) with Y49H (Kabat); only the variable regions are written; source: HEK293, transient, purified from conditioned medium (protein A, TMAE, HIC)
B17: R1-002 (antibody, V domains shown)
VH: B1 VH with K13Q
VL: B1 VL with V3E, A13S, K16Q, R19S, K51S, K52N
notes: as for B6
B18: R1-009 (antibody, V domains shown)
VH: B1 VH with Q6E, K13Q, R98K
VL: B1 VL with V3E, A13S, K16Q, T17R, R19S, K51S, K52N
notes: as for B5

Target: T1, human PDGF-BB (platelet derived growth factor B homodimer) (human, UniProt P01127)
T1 construct: Platelet derived growth factor B, human, homodimer, bought from PeproTech; the printed catalogue number may stand for 100-14B; source: bought: PeproTech, Catalog 100-148
T1 sequence (P01127 82-190): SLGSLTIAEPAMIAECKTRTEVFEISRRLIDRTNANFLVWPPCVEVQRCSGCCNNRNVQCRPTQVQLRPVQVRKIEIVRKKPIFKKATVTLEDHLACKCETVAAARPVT
Experiment: SPR; Biacore T200, full kinetics; antibody captured by anti-human IgG on a CM5 chip; human PDGF-BB at 20, 10, 5, 2.5 and 1.25 nM, 50 s injection; HBS-EP+ N; 25 C; 1:1 Langmuir fit
Conditions: both partners purified
With B1 the Kd was 0.103 nM.

Target: not listed separately
Experiment: AC-SINS; self-association assay, as in Avery et al. [35]; score = smoothed max absorbance of the antibody sample minus that of the average blank (PBS); scores >=11 considered high
Conditions: other: AC-SINS
B2 gave an AC-SINS Score of 22.

Target: T1, human PDGF-BB (platelet derived growth …)
Experiment: SPR; Biacore T200, off-rate screen; antibody captured (~70 to 100 RU) by anti-human IgG amine-coupled to a CM5 chip; human PDGF-BB injected at a single 2.5 nM for 170 s, dissociation 300 s; HBS-EP+ N (10 mM HEPES, 500 mM NaCl, 3 mM EDTA, 0.05% Tween20, pH 7.4); 25 C
Conditions: both partners purified
For B3, the koff was 0.000347 s⁻¹. B4 showed a koff of 0.000396 s⁻¹. Binder B5 has a koff of 0.000372 s⁻¹. B6 gave a koff of 0.000314 s⁻¹. B7 gave a koff of 0.000386 s⁻¹. In the case of B8, the koff is reported as 0.000471 s⁻¹. In the case of B9, the koff is reported as 0.000304 s⁻¹. B10 showed a koff of 0.000289 s⁻¹. Work on B11 yielded a koff of 0.000396 s⁻¹. Binder B12 has a koff of 0.000266 s⁻¹. B13 gave a koff of 0.000265 s⁻¹. B14 showed a koff of 0.000297 s⁻¹. Binder B15 has a koff of 0.000282 s⁻¹. With B16 the koff was 0.000439 s⁻¹. B17 showed a koff of 0.00038 s⁻¹. With B18 the koff was 0.000393 s⁻¹. Binder B1 has a koff of 0.000366 s⁻¹.

Target: T2, human PDGF-BB (platelet derived growth factor B homodimer) (human, UniProt P01127 82-190)
T2 construct: Platelet derived growth factor B, human, homodimer, bought from PeproTech; the printed catalogue number may stand for 100-14B; source: bought: PeproTech, Catalog 100-148
T2 sequence (P01127 82-190): as above
Experiment: as above
Conditions: both partners purified
B2 showed a koff of 0.000319 s⁻¹.

Tested on: not listed separately
Experiment: AC-SINS; self-association assay, as in Avery et al. [35]; score = smoothed max absorbance of the antibody sample minus that of the average blank (PBS); scores >=11 considered high
Conditions: other: AC-SINS
Remark: another data set of the same source
With B10 the AC-SINS Score was 24. B1 showed an AC-SINS Score of 25.

Target: T1, human PDGF-BB (platelet derived growth …)
Experiment: SPR; Biacore T200, full kinetics; antibody captured by anti-human IgG on a CM5 chip; human PDGF-BB at 20, 10, 5, 2.5 and 1.25 nM, 50 s injection; HBS-EP+ N; 25 C; 1:1 Langmuir fit
Conditions: both partners purified
Remark: another data set of the same source
For B10, the Kd was 0.0743 ± 0.0137 nM, the koff was 0.000357 s⁻¹ and the kon was 4.88e+06 M⁻¹ s⁻¹. For B1, the Kd was 0.0888 ± 0.0295 nM, the koff was 0.000336 s⁻¹ and the kon was 3.97e+06 M⁻¹ s⁻¹.

Target: T2, human PDGF-BB (platelet derived growth …)
Experiment: as above
Conditions: both partners purified
B2 showed a Kd of 0.0948 ± 0.0292 nM, a koff of 0.000457 s⁻¹ and a kon of 5.05e+06 M⁻¹ s⁻¹.
